What was measured:
[1] = ATPase activity at 0.05 ppm enzyme on 0.1 mM ATP (absorbance 620 nm); type: biochemical; details: for Activity on ATP (absorbance at 620 nm, blank subtracted), pH 5.0: 50 mM IVIES buffer pH 5; for Activity on ATP (absorbance at 620 nm, blank subtracted), pH 6.0: 50 mM IVIES buffer pH 6
Method: Enzyme activity towards ATP or ADP at pH 3 to 9: The ability of candidate enzymes to degrade ATP or ADP to AMP and free phosphate (Pi) was measured using a standard malachite green phosphate detection kit (Sigma Aldrich cat no. MAK307). The enzyme reactions were carried out in 96-well plates with a total volume of 150 μL and contained 250 μM of a substrate, 50 mM of a buffer, 5 mM CaCl2, and a variable concentration of enzyme. The substrate was ATP or ADP. The buffer was glycine (pH 3), acetate (pH 4, 4.5, 5), bis-Tris (pH 5.5, 6, 6.5), or Tris (pH 7, 8, 9). The concentration of enzyme varied from about 1 μg/mL to 1 ng/mL and was adjusted based on the activity of the enzyme so that the amount of phosphate released during the assay was with the dynamic range of the assay (5-100 μM phosphate). The enzyme concentration was determined by the absorbance at 280 nm and using the predicted molecular weight and molar extinction coefficient to calculate the concentration. The enzyme reaction was initiated by the addition of 15 μL enzyme with 135 μL of the other reaction components such that the final reaction composition was as previously described. The reaction was stopped after 5 min by mixing 80 μL of the reaction mixture with 20 μL of the malachite green working reagent. The malachite green working reagent was prepared according to the manufacturer's protocol by mixing 100 parts reagent A with 1 part reagent B. Phosphate standard solutions (0-80 μM) and a negative control reaction without enzyme were also mixed with the malachite green working reagent. All samples were tested in duplicate. The malachite green reaction mixture was allowed to rest at room temperature for 45-60 min and the absorbance at 620 nm was measured. Lastly, the absorbance of the phosphate standards were used to convert the absorbance readings of each sample into phosphate concentrations and the negative control was subtracted from each reaction.
Enzymes of interest were assayed against ATP substrate. The ATPase activity was measured at 0.05 ppm concentration in 50 mM IVIES buffer pH 6 and pH 5 with 0.1 mM ATP as substrate as described in Example 1. Commercial potato apyrase was used as reference. The absorbance at 620 nm was measured and the absorbance of a blank sample (water) was subtracted from each sample.

[2] = pH profile of enzymes on 1 mM ATP; type: biochemical; details: 50 mM trisodium citrate/citric acid, 5 mM CaCl2, relative to the highest value
Method: The pH profile of additional enzymes of interest was assayed using 1 mM ATP, in 50 mM trisodium citrate/citric acid buffer with 5 mM CaCl2. Absorbance was read at 620 nm and all values were set relative to the highest one. Commercial potato apyrase was used as reference. […]

| Molecule | Activity on ATP (absorbance at 620 nm, blank subtracted), pH 5.0 [1] | Activity on ATP (absorbance at 620 nm, blank subtracted), pH 6.0 [1] | Relative activity on ATP, pH 3 [2] | Relative activity on ATP, pH 3.5 [2] | Relative activity on ATP, pH 4 [2] | Relative activity on ATP, pH 4.5 [2] | Relative activity on ATP, pH 5 [2] | Relative activity on ATP, pH 5.5 [2] | Relative activity on ATP, pH 6 [2] | Relative activity on ATP, pH 6.5 [2] |
| --- | --- | --- | --- | --- | --- | --- | --- | --- | --- | --- |
| CRC22383: GDA1/CD39 family enzyme, accession WP_058475114.1, SEQ ID NO:11 (protein, listed as Legionella quateirensis) ADNPCTNHQCIAVIDAGSTGSRLHVFSYDVDETRSPININEIWNKKIKPGFATIEPNSNTIDAYLTTLLSGAPNQQIPVYFYATAGMRLLPVSKQKKYYDELQHWFSQQSQWQLVEAKTITGNDEALYDWLSVNYHLGTLQKSLNQSVGVMDMGGASVQIVFPIQKNSELNTRSQVELDLYGQHYTLYVQSFLGLGQTEVAHQFLNSAPCFSNDYPLPDGESGQGNASACEQEVSRLMTEVHKVNNVIQPLLAANPVDSWYSIGGISNLADSSLFHFENSKLTNQNLLQQADSQVCHQQWDSLNSQFPDDEYVYQYCLFSAYYYALMVDGYGIVPDQSINYIPPAQNLDWTMGVVLHH | 0.07 | 0.10 | – | – | – | – | – | – | – | – |
| CRC22386: GDA1/CD39 family enzyme, accession WP_173236575.1, SEQ ID NO:12 (protein, listed as Legionella antarctica) GTVSCNEHQCIAVIDAGSTGSRIHVYAYDMDETNTPVHINEVWTKKIKPGFATIEPNYESIEAYLVTLLSGAPNQDIPVYFYATAGMRLLPASKQKLYYQELQRWFSQQHQWRLIDAKTITGNEEALYDWLSVNYHLDTLKSIQNKSVGVMDMGGASVQIVFPIQKNEEINSNSQVELDLYGHHVNLYVHSFLGLGQTEMSHQFLNSVSCFANDYPLPDGESGRGNAPSCKQEVSSLMNGVHGVNKTIQPVLTANPVDTWFAIGGLTNLADNKLFHFENGELTNQNLMQQADSQICHQQWDKLNSEFPNDDYVYEYCLLSAYYYALMVDGYGIYPEQTVNYVSSALNLDWTKGVVLHH | 0.36 | 0.25 | 0.0 | 0.0 | 0.0 | 0.0 | 0.2 | 0.6 | 0.8 | 1.0 |
| CRC22387: GDA1/CD39 family enzyme, accession WP_127099836.1, SEQ ID NO:13 (protein, listed as Legionella sp.) QSSPCEKQQCIAIVDAGSTGSRLHIYAYDLDVTKTPIHIKELWNKKITPGFARIEANTNTIDSYLTILLADSPIKKIPIYFYATAGMRLLPQMKQKKYYDELSSWFKKHSEWQLVEAKTITGNEEGLYDWLSVNYHLGNFESPTNKSIGVMDMGGASVQIVFPIAETPTINDKSQIQVNLYGRHYNLYVHSFLGLGQTEMSHQFLNSASCFVNNYPLPDGAEGQGNALSCEQEVSSLMNQVHGVNQLIQPLLAANPVDSWYSIGGISNLADSQFFNFQHSQLTNQDLLEQADSQICHQQWEDINNQYPDDDYVYQYCLFSAYYYALMVDGYGLYPEQTINYLPPQQNIDWTTGVVLHQQR | 0.36 | 0.11 | 0.1 | 0.0 | 0.0 | 0.1 | 0.3 | 0.5 | 1.0 | 1.0 |
| CRC22112: GDA1/CD39 family enzyme, accession KTD66016.1, SEQ ID NO:10 (protein, listed as Legionella santicrucis) ESAECTEHQCMAVVDAGSTGSRAHIFAYDLDETNTPSQIHEIWSKKIKPGLATIEANQDTIDAYLTILFSGAPKQNIPVYFYATGGMRLIPQTKQKLYYKEIQNWFNQQSIWQLIEAKTITGNDEALYDWLAVNYHIGTLKSSTTEPIGVMDIGGASVQIAFPIPKDVETNKSSQVELDLYGKHLNLFVHSFLGLGQNEVTHQLLDTNSCFSEGYPLPGGNLGQGDAVICQQEVSSLINRVHKVQSEVQPTLATNRITMWYAIGGLTNLVESEPFQFQNNQITNQDLLQQANSLICHQQWEGLSTQFPDNEYIESFCLLPAFYYALMIDGYGISVTQPVKYISPRENLDWTTGVVLHH | 0.04 | 0.06 | – | – | – | – | – | – | – | – |

— patent US20240124857A1, “COMPOSITION FOR GUT HEALTH” (DUPONT NUTRITION BIOSCIENCES APS, priority 2021, published 2024)
